The data set can be described thus: soluble on expression in E. coli; label from the status in PepcDB or PDB records.
“MRSFPKAKEAFSEGEKVSFGVHRLHVGDAREVLASFPEASVHLVVTSPPYWTLKRYEDTPGQLGHIEDYEAFLDELDRVWREVFRLLVPGGRLVIVVGDVAVARRRFGRHLVFPLHADIQVRCRKLGFDNLNPIIWHKHTNASLEVEGRGVFLGKPYEPGAIIKTEIEYILMQRKPGGYRKPTQEQREKSRLPKEDFHRFFRQIWDDIPGESTKDHPAPFPLELAERLVRMFSFVGDVVLDPFAGTGTTLIAAARWGRRALGVELVPRYAQLAKERFAREVPGFSLEVLDGATHPRR”: the “soluble on expression in E. coli” value is recorded as “soluble”.

As to “MSLHAAAVGPSVLPDLREQVEQIIAEARRQGASACEVAVSLEQGLSTSVRQGEVETVEFNRDQGFGITLYAGQRKGSASTSATGEAAIRETVAAALAIARHTSEDECAGLADAALMARELPELDLYHPWSLSPEQAVERALACEAAAFAADKRVTKADGTTLNTHQGCRVYGNSHGFIGGYASTRHSLSCVMIAEGEGQMQRDYWYDVNRRGEALASAESIGRRAAERAASRLGARPVQTAEVPVLFAPEIAVGLFGHFLGAISGGSLYRKSSFLEGALGQRLFPEWLSIDERPHLVGALGSASFDSDGLATYAKPFVENGELVSYVLGTYSGRKLGLPSTANAGGVHNLFVSHGDEDQAALIRRMERGLLVTELMGQGVNLVTGDYSRGAAGYWVENGEIQFPVQEVTIAANLRDLFRRIVAVGKDIERRGNLHTGSVLVESMMVAGR”, the “soluble on expression in E. coli” value is “soluble”.

As to “MSLMRIVFDIGGSVLVPEKPDVDFITKLGYELTKISEDHEIAIVVGGGKVAREYIEVASKFNTNETFKDYLGIQITRANAMLLIAALKERAYPQVVSDFWEAWKAIQLKKIPVMGGTHPGHTTDAVSALLAEFLSADLLVVITNVDGVYTEDPKKNPNAKKIPKMKAKDLVDIVSREAGKAGVSTVIDPLAAKIIMRSGIKTYVIGKEDALKLFDVIKGNHNGTIIEPEGHHHHHH”, the “soluble on expression in E. coli” value is given as “soluble”.

Regarding “RWQEGNRITLLENGDQYYPALFAAIGRASRRVILESFIWFEDEVGRRLHAVLLEAARRGIQVEVLLDGYGSPDLSDEFVGELTAAGVIFRYYDPRPKLMGMRTNLFRRMHRKIVVIDDTTAFVGGINYSAEHMSDYGPEAKQDYAVQVEGPVVLDILQFELENLPNSETARRWWRRRRH”, the “soluble on expression in E. coli” value is “not soluble”.

As to “SISKEEILKPIWYAFTALDLDRNGKVSKSQLKVLSHNLCTILKIPHNTSALEEHFKDDDEGPVSTQGYMPYLNTFILSKIQPNFDFVELNKMCWTLSAPKHINTMNLLMSEKDAFRVWCIFNFLSEDKYPLTIVTEELEYFLRKLLTAMGCSWNEGRFEDYKMHLNAKTWKHKVSKHEGLLKLVQPGGKTPSKMTNWGQAAFTESELNELEKMWQVNKNRSEEE”, the “soluble on expression in E. coli” value is given as “soluble”.

As for “MSLGTFPAGVSADSVFVGLTIPLTGVFSGDGGDLKLGYELAIAQINAGSDIAQKWGLKGKGVLGRQIRHKVSDTEGKPNLDVQSATQFIQRDKAIMVSGSVSSSSAIALEELGSREKVLYMVGIAGSNDITGKNCQRYGFRSQQNAYMAAKGLAPVVAKALGKNIKMAFLVPDYTYGHSVYDSFSKFATEQGWKQVAKEVVPLGTTDYSSALLNIANSGADVFVNIAFGADSVASTKQAEQFGVLKRMKLVVPNLSSFQDKELGAELMQGVYGSCDFWFGLQDKFPLAKAFVDSFVAQNNYHPRWGAHIGYMQTYLWAMSVERANTFNPVDVIKVMENSKAQPYVTTIGNVYFRAEDHQMVRPIPILRGKKPSEMKHKEDFYDIIDLVDGEAVMNPPDLFGCKLGPYTEGHHHHHH”, the “soluble on expression in E. coli” value is on record as “soluble”.

On to “MGSDKIHHHHHHMIRPSLAHTIISEVRKLLDEDLIVVDPSGTIIASTDKERMGSFHEGALISYNERRRLIITQDDESKLTGVKAGINLPIFFQDQVVGVIGITGDPSKVSAYGELLRKMTELLIKEKYYAEQLEWHARTLEAFVFDWVQQKEWTRSFINQAKMLHIDLTVSRQVIIGYYGQHNRERIQREWWIDVSQTFTRQKDDLLVRWGNDRFVMLLANKAEGKERAVHSIQQIQKYIQNKYRHSLSFGVGQSVCPQELYRSFEQAERALAVAVRTQSIVFEEDLRLDMCLQDVKKQTRVDFVQRTLEPIMKDEDLLETLKTFIARNQSFKETAETLHIHINTLHYRLKKMEDKTGLNPRDFHDLTTLYLGLLFLEDNLKN”, for which the “soluble on expression in E. coli” value is listed as “not soluble”.

Consider “MTVVNEYRPVEVFFGEGAVKKAGEVGRRFGFKALIVTGRKSTKESGALDKLINSLKQNQIEYVVFDEITPNPTDKQVNKGAEIAVNEKVDFIVGIGGGSVLDAAKAISIVSSNEGYAWDYVRYPEGSRLIPFLNRPVITIPTTAGTGSEVNRYSVLTNPMTKEKMVISHSLNYPKVALVDPELTYSMPPRLTALTGFDALMHALESLTNKRENFIAEEYSVKAIELIRKWLPVAFEEPENKEARRYMSYAAMLAGIAIDHLGVALIHAMEHPVSGHYPEVAHAEGLSALAPYITAFNYRGNPEKYALFARLMGEEEKPHKAVDALVKFIERFSLPKTLKELGVEKEKLPRLAEDVYMCARHSFAVNPVEVGMEEVEELYERAYEGRL”, for which the “soluble on expression in E. coli” value is “soluble”.

In the case of “MENKKSFFHLHLISDSTGETLMSAGRAVSAQFHTSMPVEHVYPMIRNQKQLAQVIDLIDKEPGIVLYTIVDQQLAEFLDLRCHAIGVPCVNVLEPIIGIFQTYLGAPSRRRVGAQHALNADYFARIEALNFAMDHDDGQMPETYDDADVVIIGISRTSKTPTSIYLANRGIKTANIPVVPNVPLPESLYAATRPLIVGLVATSDRISQVRENRDLGTTGGFDGGRYTDRATIMEELKYARALCARNNWPLIDVTRRSIEETAAAILALRPRTRLEHHHHHH”, the “soluble on expression in E. coli” value was “soluble”.

Regarding “MGSDKIHHHHHHMAGSVIHLDENAGPPATHGLVVGVGKYPHLEGGEAPVADSDGMRQLSSPPLSARAFARWLLAEYHDPQRPLGSVSLLLSEEQPAPFVNPRTGTAHEVEVATIDNILAAVTQWYDRGDSHVDNRLVFYFCGHGISQGDDMALLAADIFADPHNPLNGALDFAGLMNGLKRCKASQQVFFLDACRSNSDVLIEASGTRFAGRTPLGAGARPLDLPRRFHIPYYATLSGDQSHARPGQVSLFTEALLKSLAGAASDDPEGDWRVNTAHLLEAIDHFMHQPCFAGMVAGVQVPAVGELPVFVLHQLAGPPVVPVYVGCDPAQDNAEAEFVCLEGGRERLRRTLNDVDDTDPESEWAIELSFGDYDFEARLGERDVRTKTITVRPVFRRVHLVKS”, the “soluble on expression in E. coli” value was “not soluble”.

“CGVFGIWGHEEAPQITYYGLHSLQHRGQEGAGIVATDGEKLTAHKGQGLITEVFQNGELSKVKGKGAIGHVRYATAGGGGYENVQPLLFRSQNNGSLALAHNGNLVNATQLKQQLENQGSIFQTSSDTEVLAHLIKRSGHFTLKDQIKNSLSMLKGAYAFLIMTETEMIVALDPNGLRPLSIGMMGDAYVVASETCAFDVVGATYLREVEPGEMLIINDEGMKSERFSMNINRSICSMEYIYFSRPDSNIDGINVHSARKNLGKMLAQESAVEADVVTGVPDSSISAAIGYAEATGIPYELGLIKNRYVGRTFIQPSQALREQGVRMKLSAVRGVVEGKRVVMVDDSIVRGTTSRRIVTMLREAGATEVHVKISSPPIAHPCFYGIDTSTHEELIASSHSVEEIRQEIGADTLSFLSVEGLLKGIGRKYDDSNCGQCLACFTGKYPTEIYQDTVLPHVK”: the “soluble on expression in E. coli” value is “soluble”.

Consider “AQAEASSAQAAQQKNFNIAAQPLQSAMLRFAEQAGMQVFFDEVKLDGMQAAALNGSMSVEQGLRRLIGGNPVAFRLQPQGQIVLSRLPTANGDGGALALDSLTVLGAGGNNANDWVYDEPRSVSVISREQMDNRPARHAADILEQTTGAYSSVSQQDPALSVNIRGIQDYGRVNMNIDGMRQNFQKSGHGQRNGTMYIDSELLSGVTIDKGTTGGMGSAGTLGGIATFNTVSASDFLAPGKELGGKLHASTGDNGTHFIGSGILALGNETGDILLAASERHLGDYWPGNKGDIGNIRINNDTGNYDRYAESIKNNKIPDTHYRMHSRLAKVGWNLPANQRLQLSYLQTQTASPIAGTLTNLGTRPPYELGWKRTGYTDVMARNAAFDYSLAPEDVDWLDFQAKLYYVDTQDDSDTYSTSSLLDNGYATRTRLRTYGAQAQNTSRFSLAPGHDFRANYGLEFYYDKATSDSSRQGMEGVTPAGNRSVASLFANLTYDYDGWLTLEGGLRYDRYRLRGQTGLSYPDLAKDGQRYTIDNPCKALRLTGCSTTTREDWDVDRDQGKLSPTLAVAVRPGVEWLELYTTYGKSWRPPAITETLTNGSAHSSSTQYPNPFLQPERSRAWEVGFNVQQPDLWFEGDRLVAKVAYFDTKVDNYINLAIDRNKPGLVQPSIGNAAYVNNLSKTRFRGLEYQLNYDAGVFYADLTYTHMIGKNEFCSNKAWLGGRLRYGDGSRRGNFYVEPDAASNDFVTCDGGTQFGSAAYLPGDRGSVTLGGRAFDRKLDAGVTVRFAPGYQDSSVPSNYPYLADWPKYTLFDLYASYKLTDSLTLRGSVENLTNRAYVVSYGETLANTLGRGRTVQGGVEYRF”, for which the “soluble on expression in E. coli” value was “soluble”.

For “RARADKQHVLDMLFSAFEKHQYYNLKDLVDITKQPVVYLKEILKEIGVQNVKGIHKNTWELKPEYRHYQ”, the “soluble on expression in E. coli” value is reported as “soluble”.

Regarding “MGSDKIHHHHHHMQDVTGRALVMMESATQGQQGIAMDLVQEAFIALHKSYADRSTEEWYPLFYTILNNKLQDWRRKEARRANPFSFFKKVSLDNDDEEIIDIVDEKAINPADFLDQAVTIEEIQEAIAKLPVRQQQAFMLRAWEGFDTHTTAQIMNCTEGSVKTHYHRAIQGLREYLAHLNPMGGSNES”, the “soluble on expression in E. coli” value is “not soluble”.

For “MSLDVAIGEVLAEVAAQEGDRLALVEVVPNGMDSPVGAASTSRRWTYAQLNDDARRCASWLLTQFKTGDHICVWAPNVPEWIVLQYGAALSGLVLVTANPALKASELEFVLQQSQSVALFHLDAFRGVETGAVARSFASAKLRCISFSGWLAEIRRTEIGALPRIDPGQPAQIQYTSGTTGRPKGALLHHRGLITNASYVAARAGLDHSVLLSPMPLFHTAGSIMSVLGCLNSRSTLVLPLLFDPGTVLDAIAHTRADTLFGVPTMLLAVIDAQLQAPRDLSSLRVAASGGAQVPPELHRRIHDALKLPLLTVFGQTELSPIVSQTCIDDPDEQRIHSVGRPLWNVEVRIVDPNGDRVVVIGVEGEIQVRGYQTMLGYFNAPKETSETITADGWLRTGDLGAMDEAGYLRITGRLKDMIIRGGENIYPAEVEACLLRHPAVADISVFGAPDDKWGEVVAAAVRLVPDVPVTATELSAFCKTEIAPHKAPTVWYACTGFPLTASGKIQKFRLRDAAVEGELQRLSEGHHHHHH”, the “soluble on expression in E. coli” value is listed as “soluble”.

Consider “MSLGRLVLNTKEELANERLMTLKIAEMKEAMRTLIFPPSMHFFQAKHLIERSQVFNILRMMPKGAALHLHDIGIVTMDWLVRNVTYRPHCHICFTPRGIMQFRFAHPTPRPSEKCSKWILLEDYRKRVQNVTEFDDSLLRNFTLVTQHPEVIYTNQNVVWSKFETIFFTISGLIHYAPVFRDYVFRSMQEFYEDNVLYMEIRARLLPVYELSGEHHDEEWSVKTYQEVAQKFVETHPEFIGIKIIYSDHRSKDVAVIAESIRMAMGLRIKFPTVVAGFDLVGHEDTGHSLHDYKEALMIPAKDGVKLPYFFHAGETDWQGTSIDRNILDALMLNTTRIGHGFALSKHPAVRTYSWKKDIPIEVCPISNQVLKLVSDLRNHPVATLMATGHPMVISSDDPAMFGAKGLSYDFYEVFMGIGGMKADLRTLKQLAMNSIKYSTLLESEKNTFMEIWKKRWDKFIADVATKEGHHHHHH”, for which the “soluble on expression in E. coli” value is given as “not soluble”.

On to “MKFKYGATLFSGFLGLSAILAACGAKGKFDQVDDGKIVLASSLTSKNAANALQAVVEKYNQVKGGNDYPIEITQITGGYDGGRGNLQTKLSVKDKTTFYNLI”, for which the “soluble on expression in E. coli” value is listed as “soluble”.

Take “AEIDTSSIVEMVQGAEDAPVEVIEYASYTCPHCAAFHEGPYKKLKADFIDTGKVRFIYREVYFDRYGLWASMVARCAGPEKFFGISDLIYKGQAEWSRAGGPAEIAEELRKIGRLAGIENDKLEACLGDATKAQTLVAWYQEHATRDDINSTPSFMINGKKVENQAYDGFKALIEAELGN”: the “soluble on expression in E. coli” value is listed as “not soluble”.

The values above are taken from the DeepSol protein solubility set.
